The results in this text go back to publication PMC11395016, “The Ubiquitination of Arrestin3 within the Nucleus Triggers the Nuclear Export of Mdm2, Which, in Turn, Mediates the Ubiquitination of GRK2 in the Cytosol” (International Journal of Molecular Sciences, 2024).

The target in this test is T1, FLAG-Mdm2 (UniProt Q00987 1-491).
T1 construct: Mdm2, E3 ubiquitin ligase; source: HEK-293, transfected, in nuclear and cytoplasmic fractions
The experiment in a line: co-IP; HEK-293 cells transfected with D2R, GRK2 and FLAG-Mdm2; vehicle or 10 μM dopamine for 2 min; nuclear and cytoplasmic fractions each immunoprecipitated with FLAG beads; blot for GRK2. Conditions: partners not purified.

T1 sequence (Q00987 whole entry): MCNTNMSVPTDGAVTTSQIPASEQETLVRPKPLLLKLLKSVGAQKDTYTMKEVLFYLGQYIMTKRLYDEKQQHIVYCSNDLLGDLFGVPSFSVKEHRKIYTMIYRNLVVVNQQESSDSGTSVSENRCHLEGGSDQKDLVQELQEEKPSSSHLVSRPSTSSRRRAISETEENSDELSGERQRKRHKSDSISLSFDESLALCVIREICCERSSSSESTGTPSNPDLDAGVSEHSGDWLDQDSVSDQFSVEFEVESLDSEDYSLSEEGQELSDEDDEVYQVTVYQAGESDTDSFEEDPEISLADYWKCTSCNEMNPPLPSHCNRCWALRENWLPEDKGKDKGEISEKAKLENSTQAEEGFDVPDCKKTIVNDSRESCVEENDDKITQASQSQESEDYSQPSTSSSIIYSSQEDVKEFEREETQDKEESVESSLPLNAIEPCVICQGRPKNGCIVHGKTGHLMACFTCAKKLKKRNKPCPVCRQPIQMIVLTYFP

B1: GRK2 (enzyme, UniProt P25098 1-689, looked up)
chain: MADLEAVLADVSYLMAMEKSKATPAARASKKILLPEPSIRSVMQKYLEDRGEVTFEKIFSQKLGYLLFRDFCLNHLEEARPLVEFYEEIKKYEKLETEEERVARSREIFDSYIMKELLACSHPFSKSATEHVQGHLGKKQVPPDLFQPYIEEICQNLRGDVFQKFIESDKFTRFCQWKNVELNIHLTMNDFSVHRIIGRGGFGEVYGCRKADTGKMYAMKCLDKKRIKMKQGETLALNERIMLSLVSTGDCPFIVCMSYAFHTPDKLSFILDLMNGGDLHYHLSQHGVFSEADMRFYAAEIILGLEHMHNRFVVYRDLKPANILLDEHGHVRISDLGLACDFSKKKPHASVGTHGYMAPEVLQKGVAYDSSADWFSLGCMLFKLLRGHSPFRQHKTKDKHEIDRMTLTMAVELPDSFSPELRSLLEGLLQRDVNRRLGCLGRGAQEVKESPFFRSLDWQMVFLQKYPPPLIPPRGEVNAADAFDIGSFDEEDTKGIKLLDSDQELYRNFPLTISERWQQEVAETVFDTINAETDRLEARKKAKNKQLGHEEDYALGKDCIMHGYMSKMGNPFLTQWQRRYFYLFPNRLEWRGEGEAPQSLLTMEEIQSVEETQIKERKCLLLKIRGGKQFILQCDSDPELVQWKKELRDAYREAQQLVQRVPKMKNKPRSPVVELSKVPLVQRGSANGL
notes: GPCR kinase 2 (GRK2), plasmid without a named tag; detected with antibodies against GRK2; also called GPCR kinase 2; source: HEK-293, transfected, in nuclear and cytoplasmic fractions
As for B1, the “ratio of band intensities in the blot, DA(+)/CF group against the DA(−)/CF group (1.0)” value is 2.4.
